Data reported in doi:10.1101/2023.12.01.569227 (bioRxiv, 2023).
Positions count from the first letter of the chain named.

B1: Seq8 (VHH)
VHH: QVQLQESGGGLVQAGGSLRLSCAASGYGFSEYAMGWFRQAPGKEREFVATISWSGRSTYYTDSVKGRFTISRDNAKNTVYLQMNSLKPDDTAVYYCARAGWGVVVSEWDYDYDYWGQGTQVTVSS
B2: Seq7 (VHH)
VHH: B1 VHH with Y27L, G28K, Y32T, W101Y
B3: Seq2 (VHH)
VHH: B1 VHH with Y27R, R56G, S57G, W101F, V104W
B4: Seq1 (VHH)
VHH: B1 VHH with Y27R, G28T, Y32T, S57G, R98Y, W101Y
B5: Seq12 (VHH)
VHH: B1 VHH with Y27R, G28T, R56G, T58K, R98A, W101L, V103T
B6: Seq5 (VHH)
VHH: B1 VHH with Y27R, G28M, R56K, S57G, W101F, V104Y
B7: Seq4 (VHH)
VHH: B1 VHH with Y27R, G28S, S57A, W101Y
B8: Seq6 (VHH)
VHH: B1 VHH with Y27R, G28L, R98K
B9: Seq11 (VHH)
VHH: B1 VHH with Y27R, G28K, S57L, R98G, W101Y
B10: Seq3 (VHH)
VHH: B1 VHH with Y27R, G28M, Y32T, S57G, R98G, W101Y, V104Y

Molecular target: SARS-CoV-2 RBD (SARS-CoV-2, Wuhan-Hu-1, UniProt P0DTC2, biotinylated with an EZ-Link NHS-PEG4 biotinylation kit)
Test: BLI

Row | Binder | fold improvement in binding affinity over VHH-72 | binding result
1 | B1 | > 2 fold | –
2 | B2 | > 2 fold | –
3 | B3 | > 2 fold | –
4 | B4 | > 2 fold | –
5 | B5 | – | binds
6 | B6 | > 2 fold | –
7 | B7 | > 2 fold | –
8 | B8 | > 2 fold | –
9 | B9 | > 2 fold | –
10 | B10 | > 2 fold | –
